In data set [1] the target is D-CXCL8 (mirror-image human CXCL8) (synthetic (human sequence)) (UniProt P10145). Kind of data set: competition. As to conditions: competition pull-down vs labelled 315-F8-001; 37 C.
Data set [2] shares this target. Nature of the data set: pulldown. As to conditions: direct pull-down, 37 C.
Data set [3] deals with CXCL8 (IL-8) (Homo sapiens) (UniProt P10145). Kind of data set: SPR. As to conditions: L-RNA, CXCL8 immobilised.

As to “CUGACGGAAGUACGUGGAAAGCCGAAAGUGUGUCCCGGUCAG [315-F8-002 (D)]”, the Kd in data set [1] amounted to 1100 pM.

“GCUGACGGAAGUACGUGGAAAGCCGAAAGUGUGUCCCGGUCAGC [315-F8-001 (D)]”: the Kd in data set [2] (20 mM Tris pH 7.4, 150 mM NaCl, 5 mM KCl, 1 mM MgCl2, 1 mM CaCl2, yeast RNA) was 800 pM.

For “CUGACGGAAGUACGUGGAAAGCCGAAAGUGUGUCCCGGUCAG [315-F8-002 (L)]”, the figures for the Kd in data set [3] (25 C) and in data set [3] (37 C) were 220 pM and 750 pM, respectively.

In the case of “CUGACGGAAGUACGUGGAAAGCCGAAAGUGUGUCCCGGUCAG [315-F8-002-PEG (AON-S08)]”, the Kd in data set [3] (5'-aminohexyl linker with 40 kDa Y-shape PEG, 25 C) is 200 pM; in data set [3] (5'-aminohexyl linker with 40 kDa Y-shape PEG, 37 C), 800 pM.

In data set [2], “GCUGACGGAAGUACGUGGAAAGCCAAUGAGUGUGUCCCGGUCAGC [315-H9-001 (D)]” came in with a dissociation constant Kd of 1700 pM.

Take “GCUGACGGAAGUACGUGGAAAGCCGAAAGUGUGUCCCGGUCAGC [315-F8-001 (L)]”: the Kd in data set [3] (25 C, 20 mM Tris pH 7.4, 150 mM NaCl, 5 mM KCl, 1 mM MgCl2, 1 mM CaCl2) came to 220 pM; in data set [3] (37 C) it was 680 pM.

By Kd is commonly meant a measure of binding affinity in units of concentration.

Source of the values: patent US20210403913.
